Results reported in article PMC8216282, “Structural basis for the dynamics of human methionyl-tRNA synthetase in multi-tRNA synthetase complexes” (Nucleic Acids Research, 2021).
Values belong to the binder of their own block, whether it stands above or below them.

Tests used:
[1] = target: T1, AIMP3 with the nanoluciferase large subunit at its N-terminus (LgBit-AIMP3) (human, UniProt O43324 1-174); assay: split reporter (BiFC, NanoBiT); NanoBiT; LgBit on the N- or C-terminus of AIMP3, SmBit on the N- or C-terminus of MRS or on AIMP3; co-expressed in CHO-K1 cells; luminescence measured with cell-permeable substrate; conditions: partners not purified
T1 construct: AIMP3, human; source: CHO-K1 cells, transfected, in live cells; not shown: LgBit (NanoLuc large subunit), N-terminal, kept
T1 sequence (looked up): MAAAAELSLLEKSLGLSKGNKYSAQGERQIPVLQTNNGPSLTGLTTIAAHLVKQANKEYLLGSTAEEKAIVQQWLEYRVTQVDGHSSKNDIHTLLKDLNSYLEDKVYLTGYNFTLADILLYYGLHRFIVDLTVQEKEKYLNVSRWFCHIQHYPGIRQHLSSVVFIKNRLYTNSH

[2] = target: T2, MRS221-900 (methionyl-tRNA synthetase without N-terminal GST domain) (human, UniProt P56192 221-900); assay: pull-down (Ni-NTA, fluorescence); almost 2-fold; MST: PBS, 1-100 uM protein, 80 nM 6-FAM-RNA, temperature not stated; pull-down: 50 mM Tris-HCl pH 7.5, 150 mM NaCl, Ni-NTA (yeast total tRNA pool not listed); conditions: protein: recombinant, tags: hexa-His
T2 sequence: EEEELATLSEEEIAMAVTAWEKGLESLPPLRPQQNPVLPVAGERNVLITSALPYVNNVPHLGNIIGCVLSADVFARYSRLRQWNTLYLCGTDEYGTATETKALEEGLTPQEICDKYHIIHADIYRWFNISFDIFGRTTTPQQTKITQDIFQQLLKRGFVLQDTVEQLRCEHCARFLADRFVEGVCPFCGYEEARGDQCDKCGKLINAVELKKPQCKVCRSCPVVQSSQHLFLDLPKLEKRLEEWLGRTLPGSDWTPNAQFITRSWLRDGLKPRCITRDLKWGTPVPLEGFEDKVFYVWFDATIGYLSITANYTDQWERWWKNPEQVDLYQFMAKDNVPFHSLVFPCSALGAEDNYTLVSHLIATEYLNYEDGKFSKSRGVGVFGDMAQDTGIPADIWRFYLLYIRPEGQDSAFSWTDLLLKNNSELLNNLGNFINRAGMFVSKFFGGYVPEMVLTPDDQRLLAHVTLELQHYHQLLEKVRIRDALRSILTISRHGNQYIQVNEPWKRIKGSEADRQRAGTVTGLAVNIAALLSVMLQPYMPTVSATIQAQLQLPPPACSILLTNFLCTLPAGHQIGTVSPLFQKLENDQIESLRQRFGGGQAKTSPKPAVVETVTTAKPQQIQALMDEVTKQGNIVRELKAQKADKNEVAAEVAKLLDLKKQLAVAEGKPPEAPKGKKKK

[3] = target: T2, MRS221-900 (methionyl-tRNA synthetase …); assay: MST; labeled RNA (80 nM); MST: PBS, 1-100 uM protein, 80 nM 6-FAM-RNA, temperature not stated; pull-down: 50 mM Tris-HCl pH 7.5, 150 mM NaCl, Ni-NTA (yeast total tRNA pool not listed); conditions: protein: recombinant; tags: hexa-His; tRNA fold
[4] = target: T3, MRS full-length (in MRS-AIMP3 complex);AIMP3 (in MRS-AIMP3 complex) (human;human?, UniProt P56192;O43324 1-900;1-174, |); assay: as above; conditions: protein: recombinant;recombinant; copies: 1;1; tRNA fold
T3 sequence 1: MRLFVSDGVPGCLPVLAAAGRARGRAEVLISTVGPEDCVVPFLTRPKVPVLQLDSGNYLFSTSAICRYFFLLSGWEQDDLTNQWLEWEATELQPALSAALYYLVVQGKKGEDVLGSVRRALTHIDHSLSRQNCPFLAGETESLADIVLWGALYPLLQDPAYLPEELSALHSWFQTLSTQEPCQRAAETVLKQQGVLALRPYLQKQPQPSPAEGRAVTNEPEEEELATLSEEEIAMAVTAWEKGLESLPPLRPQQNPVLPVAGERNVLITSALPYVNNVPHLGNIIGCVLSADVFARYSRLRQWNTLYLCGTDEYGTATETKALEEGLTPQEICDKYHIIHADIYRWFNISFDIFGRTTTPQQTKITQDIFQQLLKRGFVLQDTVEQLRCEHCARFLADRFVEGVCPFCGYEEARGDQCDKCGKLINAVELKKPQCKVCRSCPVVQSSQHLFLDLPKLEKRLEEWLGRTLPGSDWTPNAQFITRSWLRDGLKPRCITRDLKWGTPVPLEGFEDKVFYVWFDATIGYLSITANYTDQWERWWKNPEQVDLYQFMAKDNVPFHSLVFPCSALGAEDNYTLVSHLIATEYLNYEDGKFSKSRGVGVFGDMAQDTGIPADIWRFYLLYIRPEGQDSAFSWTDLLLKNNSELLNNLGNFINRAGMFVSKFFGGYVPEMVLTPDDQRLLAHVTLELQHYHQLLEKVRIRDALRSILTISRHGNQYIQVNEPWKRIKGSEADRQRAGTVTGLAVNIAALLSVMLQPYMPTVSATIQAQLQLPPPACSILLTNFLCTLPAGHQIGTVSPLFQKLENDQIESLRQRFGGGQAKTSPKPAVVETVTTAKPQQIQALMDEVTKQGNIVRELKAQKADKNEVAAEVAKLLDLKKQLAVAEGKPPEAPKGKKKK
T3 sequence 2: T1 sequence (looked up)

[5] = target: T2, MRS221-900 (methionyl-tRNA synthetase …); assay: MST; protein labeled with Red-tris-NTA, unlabeled RNA; MST: PBS, 1-100 uM protein, 80 nM 6-FAM-RNA, temperature not stated; pull-down: 50 mM Tris-HCl pH 7.5, 150 mM NaCl, Ni-NTA (yeast total tRNA pool not listed); conditions: protein: recombinant; tags: hexa-His; label: none (Results); Methods text says 6-FAM-RNA for this assay too; tRNA fold
[6] = target: T3, MRS full-length (in MRS-AIMP3 …); assay: as above; conditions: protein: recombinant;recombinant; copies: 1;1; label: none (Results); Methods text says 6-FAM-RNA for this assay too; tRNA fold
[7] = target: T4, human MRS without the C-terminal WHEP domain (MRS 1-834) (human, UniProt P56192 1-834); assay: SEC; Superdex 200 10/300 column, Tris-HCl pH 7.5, 150 mM NaCl; molecular weights from a calibration curve of standards; conditions: both partners purified
T4 construct: methionyl-tRNA synthetase, cytosolic, human, residues 1-834; source: E. coli BL21 (DE3), purified (Ni-NTA, size-exclusion chromatography); as complex with AIMP3
T4 sequence (looked up): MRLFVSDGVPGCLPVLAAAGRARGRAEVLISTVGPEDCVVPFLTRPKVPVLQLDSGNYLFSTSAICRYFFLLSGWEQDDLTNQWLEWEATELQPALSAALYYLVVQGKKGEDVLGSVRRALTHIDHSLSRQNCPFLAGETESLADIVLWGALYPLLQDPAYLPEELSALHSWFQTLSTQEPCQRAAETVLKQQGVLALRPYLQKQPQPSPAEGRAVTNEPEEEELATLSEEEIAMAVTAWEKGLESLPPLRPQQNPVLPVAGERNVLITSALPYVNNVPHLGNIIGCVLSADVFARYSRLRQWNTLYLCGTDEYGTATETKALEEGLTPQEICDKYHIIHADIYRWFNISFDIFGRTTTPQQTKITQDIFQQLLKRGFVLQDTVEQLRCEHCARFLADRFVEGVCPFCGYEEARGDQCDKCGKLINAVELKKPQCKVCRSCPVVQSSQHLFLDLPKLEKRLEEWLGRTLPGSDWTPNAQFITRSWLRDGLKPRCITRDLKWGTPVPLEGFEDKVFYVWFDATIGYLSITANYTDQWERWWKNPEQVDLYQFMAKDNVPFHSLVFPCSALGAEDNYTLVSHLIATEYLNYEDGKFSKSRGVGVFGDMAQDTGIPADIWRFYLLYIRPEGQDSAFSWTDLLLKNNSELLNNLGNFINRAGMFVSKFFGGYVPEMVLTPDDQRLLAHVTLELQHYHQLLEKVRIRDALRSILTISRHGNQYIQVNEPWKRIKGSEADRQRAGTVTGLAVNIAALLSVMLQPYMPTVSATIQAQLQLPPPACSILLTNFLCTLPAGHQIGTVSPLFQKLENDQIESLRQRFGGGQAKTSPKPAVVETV

[8] = target: T5, human cytosolic methionyl-tRNA synthetase, full length (MRS 1-900) (human, UniProt P56192 1-900); assay: as above; conditions: both partners purified
T5 construct: methionyl-tRNA synthetase, cytosolic, human, residues 1-900 (900-residue protein); source: recombinant from pET30a or pQE80L plasmids, obtained as MRS-AIMP3 complex by co-purification
T5 sequence (looked up): T3 sequence 1

[9] = target: T6, extended GST domain of human MRS (MRS 1-224) (human, UniProt P56192 1-224); assay: crystal structure; MRS_(1-224)-AIMP3 complex crystallised in 20% PEG 8000, 0.1 M HEPES pH 7.5; molecular replacement; 2.0 A; conditions: both partners purified
T6 construct: methionyl-tRNA synthetase, cytosolic, human, residues 1-224 (GST domain and first part of the linker); also called MRSGST; source: recombinant, obtained as MRS_(1-224)-AIMP3 complex by co-purification
T6 sequence (looked up): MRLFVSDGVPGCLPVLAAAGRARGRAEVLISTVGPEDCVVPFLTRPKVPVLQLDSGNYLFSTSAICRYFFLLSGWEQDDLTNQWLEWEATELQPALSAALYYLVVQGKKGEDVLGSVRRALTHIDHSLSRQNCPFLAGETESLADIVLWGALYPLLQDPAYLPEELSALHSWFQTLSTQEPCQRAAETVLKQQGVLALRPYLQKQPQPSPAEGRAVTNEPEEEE

- fold increase of luciferase activity over background [1]: > 120 fold
B1: MRS with the nanoluciferase small subunit at its N-terminus (SmBit-MRS) (enzyme, human, UniProt P56192 1-900, looked up)
chain: T3 sequence 1
notes: methionyl-tRNA synthetase, cytosolic, human; source: CHO-K1 cells, transfected, in live cells; not shown: SmBit (NanoLuc small subunit), N-terminal, kept

B2: 6-FAM synthetic elongator tRNAMet (structured_RNA)
RNA: GCCUCGUUAGCGCAGUAGGUAGCGCGUCAGUCUCAUAAUCUGAAGGUCGUGAGUUCGAUCCUCACACGGGGCA
modifications: none stated (synthetic RNA)
- binding signal [2]: ~2 fold vs MRS-AIMP3 complex
- Kd [3]: 12.8 µM
- Kd [4]: 31.6 µM

B3: unlabeled synthetic elongator tRNAMet (structured_RNA)
RNA: B2 RNA
modifications: none stated (synthetic RNA)
- Kd [5]: 21.6 µM
- Kd [6]: 60.2 µM

- binding result [7]: binds
- binding result [8]: binds
- binding result [9]: binds
B4: AIMP3 (AARS-interacting multifunctional protein 3) (natural protein, human)
chain: T1 sequence (looked up)
notes: AIMP3, human; 'Genes for full-length human MRS (residues 1-900) and AIMP3' were cloned; the earlier structure (PDB 4bvx) used AIMP3 1-169; source: recombinant from pET30a or pQE80L plasmids, co-purified with MRS or MRS_(1-224)
